# Assay results: PMC10630445, “RNA recognition by Npl3p reveals U2 snRNA-binding compatible with a chaperone role during splicing”
# T1: Npl3 RRM1/2 (Saccharomyces cerevisiae, UniProt Q01560 114-282)
# T1 sequence: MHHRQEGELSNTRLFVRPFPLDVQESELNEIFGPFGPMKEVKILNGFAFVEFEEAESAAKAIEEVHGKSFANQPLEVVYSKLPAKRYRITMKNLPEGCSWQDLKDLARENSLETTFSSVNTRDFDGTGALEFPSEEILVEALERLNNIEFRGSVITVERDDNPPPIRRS
# T2: Npl3 RRM2 (Saccharomyces cerevisiae, UniProt Q01560 193-282)
# T2 sequence: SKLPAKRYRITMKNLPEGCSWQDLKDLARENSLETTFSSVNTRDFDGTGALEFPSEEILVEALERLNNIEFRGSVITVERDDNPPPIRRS
# T3: Npl3 RRM1 (Saccharomyces cerevisiae, UniProt Q01560 114-201)
# T3 sequence: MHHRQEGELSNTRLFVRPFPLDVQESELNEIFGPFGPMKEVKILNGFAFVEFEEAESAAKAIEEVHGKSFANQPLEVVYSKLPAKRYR
# T4: Npl3 RRM1/2 R126A (Saccharomyces cerevisiae, UniProt Q01560 114-282, R126A)
# T4 sequence: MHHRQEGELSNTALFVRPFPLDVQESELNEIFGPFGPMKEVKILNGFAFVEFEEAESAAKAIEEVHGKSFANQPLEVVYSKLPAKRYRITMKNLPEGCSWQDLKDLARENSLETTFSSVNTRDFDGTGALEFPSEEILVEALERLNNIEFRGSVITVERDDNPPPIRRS
# T5: Npl3 RRM1/2 Q214A (Saccharomyces cerevisiae, UniProt Q01560 114-282, Q214A)
# T5 sequence: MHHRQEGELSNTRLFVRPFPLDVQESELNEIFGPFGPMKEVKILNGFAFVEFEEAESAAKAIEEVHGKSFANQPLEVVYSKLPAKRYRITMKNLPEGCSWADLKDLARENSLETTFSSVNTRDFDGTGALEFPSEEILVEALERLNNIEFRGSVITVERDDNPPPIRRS
# T6: Npl3 RRM1/2 K217A (Saccharomyces cerevisiae, UniProt Q01560 114-282, K217A)
# T6 sequence: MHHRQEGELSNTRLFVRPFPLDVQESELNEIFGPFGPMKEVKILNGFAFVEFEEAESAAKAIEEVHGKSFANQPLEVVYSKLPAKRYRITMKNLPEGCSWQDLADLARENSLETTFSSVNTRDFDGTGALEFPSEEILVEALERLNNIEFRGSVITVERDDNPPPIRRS
# T7: Npl3 RRM1/2 linker GGG (Saccharomyces cerevisiae, UniProt Q01560 114-282, L195G;P196G;A197G)
# T7 sequence: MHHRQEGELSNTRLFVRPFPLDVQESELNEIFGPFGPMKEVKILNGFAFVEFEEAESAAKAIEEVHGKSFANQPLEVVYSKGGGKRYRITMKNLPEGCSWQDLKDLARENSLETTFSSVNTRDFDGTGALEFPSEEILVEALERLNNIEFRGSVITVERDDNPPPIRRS
# T8: Npl3 RRM1/2 F128A (Saccharomyces cerevisiae, UniProt Q01560 114-282, F128A)
# T8 sequence: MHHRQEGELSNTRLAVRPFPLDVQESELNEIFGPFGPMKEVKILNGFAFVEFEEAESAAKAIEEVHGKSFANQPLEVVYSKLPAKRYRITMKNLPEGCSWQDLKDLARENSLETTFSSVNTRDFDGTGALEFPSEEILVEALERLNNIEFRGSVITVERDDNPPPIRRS
# T9: Npl3 RRM1/2 F229A (Saccharomyces cerevisiae, UniProt Q01560 114-282, F229A)
# T9 sequence: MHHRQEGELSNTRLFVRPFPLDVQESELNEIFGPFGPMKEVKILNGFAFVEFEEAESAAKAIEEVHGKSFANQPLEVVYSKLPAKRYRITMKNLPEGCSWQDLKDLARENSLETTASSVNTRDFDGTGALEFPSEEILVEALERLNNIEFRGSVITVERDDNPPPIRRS
# T10: Npl3 RRM1/2 R130A (Saccharomyces cerevisiae, UniProt Q01560 114-282, R130A)
# T10 sequence: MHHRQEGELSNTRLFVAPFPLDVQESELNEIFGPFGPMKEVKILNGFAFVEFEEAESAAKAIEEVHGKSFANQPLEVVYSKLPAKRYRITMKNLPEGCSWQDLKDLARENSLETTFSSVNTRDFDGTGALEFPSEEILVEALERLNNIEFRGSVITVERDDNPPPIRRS
# T11: Npl3 RRM1/2 linker 3xGGGGS (Saccharomyces cerevisiae, UniProt Q01560 114-194+=GGGGSGGGGSGGGGS+198-282, internal_change)
# T11 sequence: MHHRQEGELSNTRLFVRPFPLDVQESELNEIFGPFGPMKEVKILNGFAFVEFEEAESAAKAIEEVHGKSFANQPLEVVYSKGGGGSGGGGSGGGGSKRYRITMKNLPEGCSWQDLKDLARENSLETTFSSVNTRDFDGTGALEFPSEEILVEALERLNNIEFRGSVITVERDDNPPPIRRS
# T12: Npl3 RRM1/2 Q214A+K217A (Saccharomyces cerevisiae, UniProt Q01560 114-282, Q214A;K217A)
# T12 sequence: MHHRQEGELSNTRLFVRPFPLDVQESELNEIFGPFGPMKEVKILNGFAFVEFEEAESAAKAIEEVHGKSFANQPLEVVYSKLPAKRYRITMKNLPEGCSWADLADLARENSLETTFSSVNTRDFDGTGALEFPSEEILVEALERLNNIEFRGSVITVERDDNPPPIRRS
# Tests used:
# Npl3 RRM1/2 [1] = molecular target: T1, Npl3 RRM1/2; assay: ITC; ITC at 40 °C in NMR buffer: RRM1 and RRM1/2 25 mM Na2HPO4, 25 mM NaH2PO4 pH 6.9; RRM2 100 mM NaCl, 20 mM NaH2PO4 pH 5.5; NMR titrations at 40 °C (U2 SL I 1D spectra at 303 K); settings: protein: recombinant; (pET28a, nickel purification)
# Npl3 RRM2 = molecular target: T2, Npl3 RRM2; assay: as above; settings: protein: recombinant; (pET28a, nickel purification)
# Npl3 RRM1 [2] = molecular target: T3, Npl3 RRM1; assay: as above; settings: protein: recombinant; (pET28a, nickel purification)
# Npl3 RRM1 [3] = molecular target: T3, Npl3 RRM1; assay: NMR titration; ITC at 40 °C in NMR buffer: RRM1 and RRM1/2 25 mM Na2HPO4, 25 mM NaH2PO4 pH 6.9; RRM2 100 mM NaCl, 20 mM NaH2PO4 pH 5.5; NMR titrations at 40 °C (U2 SL I 1D spectra at 303 K); settings: protein: recombinant; (pET28a, nickel purification)
# Npl3 RRM1/2 [4] = molecular target: T1, Npl3 RRM1/2; assay: NMR titration; UV melting; protein destabilizes the stem; Tm decreased; ITC at 40 °C in NMR buffer: RRM1 and RRM1/2 25 mM Na2HPO4, 25 mM NaH2PO4 pH 6.9; RRM2 100 mM NaCl, 20 mM NaH2PO4 pH 5.5; NMR titrations at 40 °C (U2 SL I 1D spectra at 303 K); settings: protein: recombinant; (pET28a, nickel purification); hairpin
# Npl3 RRM1/2 R126A = molecular target: T4, Npl3 RRM1/2 R126A; assay: ITC; ITC at 40 °C in NMR buffer: RRM1 and RRM1/2 25 mM Na2HPO4, 25 mM NaH2PO4 pH 6.9; RRM2 100 mM NaCl, 20 mM NaH2PO4 pH 5.5; NMR titrations at 40 °C (U2 SL I 1D spectra at 303 K); settings: protein: recombinant; (pET28a)
# Npl3 RRM1/2 Q214A = molecular target: T5, Npl3 RRM1/2 Q214A; assay: as above; settings: protein: recombinant; (pET28a)
# Npl3 RRM1/2 K217A = molecular target: T6, Npl3 RRM1/2 K217A; assay: as above; settings: protein: recombinant; (pET28a)
# Npl3 RRM1/2 linker GGG = molecular target: T7, Npl3 RRM1/2 linker GGG; assay: as above; settings: protein: recombinant; (pET28a)
# Npl3 RRM1/2 F128A = molecular target: T8, Npl3 RRM1/2 F128A; assay: as above; settings: protein: recombinant; (pET28a)
# Npl3 RRM1/2 F229A = molecular target: T9, Npl3 RRM1/2 F229A; assay: as above; settings: protein: recombinant; (pET28a)
# Npl3 RRM1/2 R130A = molecular target: T10, Npl3 RRM1/2 R130A; assay: as above; settings: protein: recombinant; (pET28a)
# [5] = molecular target: T11, Npl3 RRM1/2 linker 3xGGGGS; assay: as above; settings: protein: recombinant; (pET28a)
# Npl3 RRM1/2 Q214A+K217A = molecular target: T12, Npl3 RRM1/2 Q214A+K217A; assay: as above; settings: protein: recombinant; (pET28a)
binder,measurement,setting,value
AUUCAGUGGAA (ssRNA) [C3U RNA],Kd,Npl3 RRM1/2 [1],1800 nM
AUCCAGUAGAA (ssRNA) [G8A RNA],Kd,Npl3 RRM1/2 [1],1900 nM
AGUGGAC (ssRNA) [RRM2 site RNA],Kd,Npl3 RRM2,2200 nM
AUGGAGUCCAA (ssRNA) [inverted motif RNA],Kd,Npl3 RRM1/2 [1],1200 nM
AUCCAA (ssRNA) [RRM1 site RNA],Kd,Npl3 RRM1 [2],~16200 nM
AUCCAGUGAAA (ssRNA) [G9A RNA],Kd,Npl3 RRM1/2 [1],2500 nM
UUUUUUUU (ssRNA) [polyU 8mer RNA],binding result,Npl3 RRM1 [3],no binding
AUCUAGUGGAA (ssRNA) [C4U RNA],Kd,Npl3 RRM1/2 [1],1600 nM
AUCCAAUGGAA (ssRNA) [G6A RNA],Kd,Npl3 RRM1/2 [1],2200 nM
GAGCGAAUCUCUUUGCCUUUUGGCUUAGAUC (structured_RNA) [U2 snRNA stem-loop I],binding result,Npl3 RRM1/2 [4],binds
AUCCAGUGGAA (ssRNA) [split-iCRAC consensus RNA],Kd,Npl3 RRM1/2 R126A,10700 nM
same,Kd,Npl3 RRM1/2 Q214A,1700 nM
same,Kd,Npl3 RRM1/2 K217A,7500 nM
same,Kd,Npl3 RRM1/2 linker GGG,3800 nM
same,Kd,Npl3 RRM1/2 [1],500 nM
same,Kd,Npl3 RRM1/2 F128A,12800 nM
same,Kd,Npl3 RRM1/2 F229A,2300 nM
same,Kd,Npl3 RRM1/2 R130A,900 nM
same,Kd,[5],6800 nM
same,Kd,Npl3 RRM1/2 Q214A+K217A,15300 nM
